Reference: article PMC8809517, “Cofactor-independent RNA editing by a synthetic S-type PPR protein”
Positions count from the first letter of the chain named.

Key:
Assay in all cases: high-throughput RNA pulldown from lysate on Ni-NTA beads; HRP: 50 mM Tris pH 8, 150 mM NaCl, 1 mM beta-mercaptoethanol, 50 ug/ml BSA, 3 ug/ml yeast RNA, 0.5% heparin; ITC and FP: Tris pH 8, 200 mM KCl, 5% glycerol; MST: 50 mM Tris pH 8, 200 mM NaCl, 1 mM DTT, BSA, heparin, 0.05% Tween 20
Conditions in all cases: tags: N-terminal His-eGFP
[1] = molecular target: T1, GFP-9S library array, motif 4 ND N98D;D124Y (synthetic construct, N98D;D124Y)
T1 chain: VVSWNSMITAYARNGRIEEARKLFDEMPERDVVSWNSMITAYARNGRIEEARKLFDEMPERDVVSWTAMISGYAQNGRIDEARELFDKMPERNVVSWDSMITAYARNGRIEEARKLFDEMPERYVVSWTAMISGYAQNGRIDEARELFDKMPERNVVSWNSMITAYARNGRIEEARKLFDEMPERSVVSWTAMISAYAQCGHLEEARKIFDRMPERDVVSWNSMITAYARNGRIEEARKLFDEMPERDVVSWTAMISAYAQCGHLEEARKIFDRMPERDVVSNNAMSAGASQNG

[2] = molecular target: T2, GFP-9S library array, motif 4 ND N98D;D124Q (synthetic construct, N98D;D124Q)
T2 chain: T1 chain with Y124Q

[3] = molecular target: T3, GFP-9S library array, motif 4 ND N98M;D124P (synthetic construct, N98M;D124P)
T3 chain: T1 chain with D98M, Y124P

[4] = molecular target: T4, GFP-9S library array, motif 4 ND N98F;D124R (synthetic construct, N98F;D124R)
T4 chain: T1 chain with D98F, Y124R

[5] = molecular target: T5, GFP-9S library array, motif 4 ND N98E;D124E (synthetic construct, N98E;D124E)
T5 chain: T1 chain with D98E, Y124E

AUUACACGUGA (ssRNA) [Cy5-rpoA]
Kd ([1]; label: 5' Cy5): 153 nM | Kd ([2]; label: 5' Cy5): 369 nM | Kd ([3]; label: 5' Cy5): 106 nM | Kd ([4]; label: 5' Cy5): 117 nM | Kd ([5]; label: 5' Cy5): 248 nM

AUUAGACGUGA (ssRNA) [Cy5-rpoA-G]
Kd ([1]; label: 5' Cy5): 246 nM | Kd ([2]; label: 5' Cy5): 270 nM | Kd ([3]; label: 5' Cy5): 115 nM | Kd ([4]; label: 5' Cy5): 107 nM | Kd ([5]; label: 5' Cy5): 169 nM

AUUAAACGUGA (ssRNA) [IR-rpoA-A]
Kd ([1]; label: 5' IRDye 800CW): 1180 nM | Kd ([2]; label: 5' IRDye 800CW): 973 nM | Kd ([3]; label: 5' IRDye 800CW): 264 nM | Kd ([4]; label: 5' IRDye 800CW): 85.1 nM | Kd ([5]; label: 5' IRDye 800CW): 387 nM

AUUAUACGUGA (ssRNA) [IR-rpoA-U]
Kd ([1]; label: 5' IRDye 800CW): 266 nM | Kd ([2]; label: 5' IRDye 800CW): 803 nM | Kd ([3]; label: 5' IRDye 800CW): 296 nM | Kd ([4]; label: 5' IRDye 800CW): 176 nM | Kd ([5]; label: 5' IRDye 800CW): 675 nM
